The target in data set [1] is T1, hUXS1 (Homo sapiens, UniProt Q8NBZ7).
T1 sequence (Q8NBZ7 85-402): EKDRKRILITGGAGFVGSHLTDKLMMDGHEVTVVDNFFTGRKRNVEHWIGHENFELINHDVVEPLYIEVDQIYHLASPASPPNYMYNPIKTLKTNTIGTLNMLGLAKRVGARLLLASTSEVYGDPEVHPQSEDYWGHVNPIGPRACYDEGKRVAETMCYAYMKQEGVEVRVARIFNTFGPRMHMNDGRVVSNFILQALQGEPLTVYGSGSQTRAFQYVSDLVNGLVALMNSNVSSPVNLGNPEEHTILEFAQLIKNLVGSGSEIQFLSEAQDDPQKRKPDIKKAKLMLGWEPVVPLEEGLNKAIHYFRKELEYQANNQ
The experiment in a line: X-ray crystal structure, […] Å. In kind it is binding. The settings on record: SeMet-labelled protein; 5 mM NAD+, 5 mM UDP; coenzyme site.

Substrate in data set [2]: O=C(O)[C@H]1O[C@H](OP(=O)(O)OP(=O)(O)OC[C@H]2O[C@@H](n3ccc(=O)[nH]c3=O)[C@H](O)[C@@H]2O)[C@H](O)[C@@H](O)[C@@H]1O
Description: purified protein. As to conditions: 50 mM Tris/HCl pH 7.5, 25 °C.

Numbering of substitutions follows the chain as printed. Names and notes keep the numbering of the source.

Consider `NC(=O)c1ccc[n+]([C@@H]2O[C@H](COP(=O)(O)OP(=O)(O)OC[C@H]3O[C@@H](n4cnc5c(N)ncnc54)[C@H](O)[C@@H]3O)[C@@H](O)[C@H]2O)c1` [NAD^+], for which, in data set [1], the “X-ray crystal structure, 1.26 Å” value was “We solved the crystal structure of hUXS1 in complex with NAD^+ and UDP”.

B1: hUXS1 (Homo sapiens) (protein)
chain: T1 sequence (Q8NBZ7 85-402)
In the case of B1, the kcat in data set [2] (0.5 mM NAD+) is 0.2/oxidation^e.

B2: hUXS1 (Homo sapiens; E204A) (protein)
chain: T1 sequence (Q8NBZ7 85-402) with E120A
Consider B2, for which the kcat in data set [2] (10 mM NAD+) was 1.7 × 10^−3/reduction^e.

The record behind these values is article PMC3438964 (The Journal of Biological Chemistry, 2012).
